The source of these data is patent US8821862B2, “Soluble β-N-acetylglucosaminidase based antibiofilm compositions and uses thereof” (Kane Biotech Inc., priority 2002, dated 2014).

One data set deals with E. coli. As to the kind of experiment: In vitro microplate biofilm formation assay (crystal violet). Particulars: DispersinB at different concentrations, CFA medium, 26° C., 24 hours. The format is cell-based, Escherichia coli.
The test system of a further data set is S. epidermidis. As to the kind of experiment: In vitro microplate growth and biofilm formation assay (crystal violet). It counts as cell-based, Staphylococcus epidermidis. Particulars: DispersinB at different concentrations, TSB, 37° C., 24 hours. As to the method:
An overnight culture of S. epidermidis in Tryptic Soy Broth (TSB) was used as inoculum. Bacteria were grown in TSB on a 96-well microtiterplate in the absence and presence of each compound (DispersinB™ or TCSN) at different concentrations separately and together (DispersinB™+TCSN). Concentrations of DispersinB™ included 25 ng/ml, 50 ng/ml, and 100 ng/ml. Concentrations of TCSN included 25 μg/ml, 50 μg/ml, and 100 μg/ml. The plate was incubated at 37° C. for 24 hours. The growth and biofilm was measured as explained in Example 1.
The experiment was performed as explained in Example 1.
An in vitro microtiter assay was performed to determine the effect of DispersinB™ wound gel on the growth and biofilm formation of Staphylococcus epidermidis. S. epidermidis biofilm was grown in tryptic soy broth (TSB). S. epidermidis was grown in 96-well microtiter plate in the absence and presence of DispersinB™ wound gel at different concentrations. The plate was incubated at 37° C. for 24 hours.
In vitro microplate assay was performed to determine the synergistic effect of DispersinB™ and triclosan (an antimicrobial agent) on the growth and biofilm formation of S. epidermidis. Overnight culture of S. epidermidis in Tryptic Soy Broth (TSB) was used as inoculum. […]

The subject of the next data set is S. aureus. The data set is described as follows: In vitro microplate biofilm formation assay (crystal violet). Particulars: DispersinB at different concentrations, TSB, 37° C., 24 hours. It counts as cell-based, Staphylococcus aureus.
A further data set deals with S. epidermidis biofilm. The data set is described as follows: Dispersal of S. epidermidis biofilm aggregates in a tube. It counts as cell-based. Particulars: scraped biofilm cell aggregates in tube treated with DispersinB. From the text: The biofilm growth from the surface was scraped from the bottom of the tube and transferred to another tube (FIG. 2). Under these condition cells formed a sticky aggregate that rapidly settle to the bottom of the tube.

The subject of data set [1] is E. coli csrA luxCDABE kan^r biofilm. As to the kind of experiment: Bioluminescent E. coli biofilm on filter disc, luminescence. It counts as cell-based. Particulars: for luminescence, Day 1 / luminescence, Day 2 / luminescence, Day 3 / luminescence, Day 4: DispersinB 50 μg/ml. The source says: E. coli TRMG1655 [csrA::kan^r] strain was transformed with transposon, mini-TN5 luxCDABE::kan^r for luciferase expression (Kadurugamuwa et al., 2005, Infect. Immun. 73: 3878-3887), and the operon integrated into the chromosome. Integration was confirmed by amplification of the genomic DNA upstream of the transposon by inverse PCR using Ssp1-digested genomic DNA. Primers UTCF1 (5′-[…]-3′; SEQ ID NO:13) and UTCR (5′-[…]-3′; SEQ ID NO:14) were used to amplify the upstream region using Pfu DNA polymerase (Sigma-Oligosynthesis, St. Louis, Mo.). The lux operon is derived from Photorhabdus luminescence and was obtained from Xenogen Inc. (Alameda, Calif.). These bioluminescent bacteria allow real-time monitoring by noninvasive imaging of biofilms, either in vitro or in vivo.
A cell suspension of 10^6 E. coli csrA luxCDABE kan^r was used to inoculate a filter disc (Millipore Corporation, Billerica, Mass.). The E. coli biofilm was maintained in minimal media (M9) supplemented with 50 μg/ml kanamycin and 100 μg/ml ampicillin. The media were changed every day by transferring the disc to new plate. After 3 days, chemoluminescence activity of the established biofilm was measured using a Typhoon™ imaging scanner (General Electric Healthcare Life Sciences) and ImageQuant TL software (Amersham Biosciences, Sunnyvale, Calif.). The measure luminescence directly correlates with the metabolic activity of the biofilm.
Luminescence was measured at day 0 and was used as the control. Following the measurement of luminescence at day 0, each disc was treated with one of the following—media alone (control) and media containing:
Luminescence was measured every 24 hours followed by replacing the media. Thus, every 24 h following the measurement of the luminescence, 10 μl each of the different solutions was applied to the plate and the biofilm disc was placed on top of the drop everyday. The quantitative analysis of the biofilm luminescence from each day was used to compare the biofilm activity after treatment with the different treatments.
The experiments were repeated using the same E. coli strain csrA luxCDABE kan^r and protocols. Biofilm discs were pulsed with media alone (control) and media containing: […]

For data set [2], the system named is A. actinomycetemcomitans CU1000 biofilms. As to the kind of experiment: Biofilm killing assay. It counts as cell-based. To be noted: DispersinB alone, 20 μg/mL. The protocol:
Biofilm Killing Assay. […] Tubes were vortexed for 10 s, and 20 μL aliquots of the detached biofilms were transferred to the wells of a flat-bottomed 96-well microtiter plate containing 180 μL of fresh broth. Five serial dilutions (20 μL into 180 μL) were performed directly into adjacent wells. Plates were incubated for 48 h and then rinsed and stained with crystal violet as described above. Wells containing 30-300 biofilm colonies were photographed under a dissecting microscope and counted. In some assays, biofilms were pre-treated with 1 mL of DispersinB™ (20 μg/mL in PBS) for 5 min prior to the SDS treatment. In these assays, a 100 μL quantity of SDS in PBS (at 10 times the test concentration) was added directly to the DispersinB™-treated cell suspension and mixed. After 5 min, tubes were vortexed briefly, and 20-μL aliquots of culture were enumerated as described above. Killing assays were performed in duplicate tubes on at least 5 separate occasions, with similar results.

The nature of data set [3]: Shelf life of purified DispersinB. It counts as physicochemical.
[4] abbreviates: Table 3, phage 10^8, treatment renewed every 24 h.
The mark [5] stands for this setting: Table 4, repeated experiment, BisEDT 50 μg/ml, phage cocktail 10^8.

Protocol for S. aureus: An in vitro microplate assay was performed to determine the effect of DispersinB™ on the growth and biofilm formation of E. coli, S. epidermidis, and S. aureus. E. coli biofilm was grown in colony forming antigen (CFA) medium. […] S. epidermidis and S. aureus biofilm was grown in tryptic soy broth (TSB). Bacteria were separately grown in 96-well microtiterplate in the absence and presence of DispersinB™ at different concentrations. The E. coli plate was incubated at 26° C. for 24 hours. The S. epidermidis and S. aureus biofilm plates were incubated at 37° C. for 24 hours. Growth of planktonic cells based on the absorbance at 600 nm was determined using Labsystems Multiskan Ascent microplate reader. Biofilm was measured by discarding the medium; rinsing the wells with water (three times), and staining bound cells with crystal violet. The dye was solubilized with 33% acetic acid, and absorbance at 630 nm was determined using a microtiter plate reader.

B1: DispersinB™: 381 amino acid soluble β-N-acetylglucosaminidase encoded by dspB of A. actinomycetemcomitans; mature polypeptide SEQ ID NO:11 (protein)
chain: NCCVKGNSIYPQKTSTKQTGLMLDIARHFYSPEVIKSFIDTISLSGGNFLHLHFSDHENYAIESHLLNQRAENAVQGKDGIYINPYTGKPFLSYRQLDDIKAYAKAKGIELIPELDSPNHMTAIFKLVQKDRGVKYLQGLKSRQVDDEIDITNADSITFMQSLMSEVIDIFGDTSQHFHIGGDEFGYSVESNHEFITYANKLSYFLEKKGLKTRMWNDGLIKNTFEQINPNIEITYWSYDGDTQDKNEAAERRDMRVSLPELLAKGFTVLNYNSYYLYIVPKASPTFSQDAAFAAKDVIKNWDLGVWDGRNTKNRVQNTHEIAGAALSIWGEDAKALKDETIQKNTKSLLEAVIHKTNGDE
modifications: Actinobacillus actinomycetemcomitans
For the molecule B1, the biofilm formation result in the data set with E. coli, in the data set with S. epidermidis and in the data set on S. aureus was “appreciable effect” each time. In addition, the “dispersal of S. epidermidis biofilm” value in the data set on S. epidermidis biofilm was “detaches the biofilm”. Further, the “luminescence, Day 0” value in data set [1] (Table 3, Day 0, measured before treatment (baseline)) amounted to 948.72 RLU; in data set [1] (Table 4, repeated experiment, Day 0, before treatment (baseline)) it was 1815.26 RLU. Besides, the “luminescence, Day 1” value in data set [1] (setting [4]) is 1167.19 RLU; in data set [1] (setting [5]), 2137.73 RLU. Besides, the results for the “luminescence, Day 2” value in data set [1] (setting [4]) and in data set [1] (setting [5]) were 1297.42 RLU and 1911.9 RLU, respectively. The “luminescence, Day 3” value was found to be 1487.76 RLU in data set [1] (setting [4]) and 2982.02 RLU in data set [1] (setting [5]). For the same molecule, the “luminescence, Day 4” value was 1550.01 RLU in data set [1] (setting [4]) and 2032.06 RLU in data set [1] (setting [5]). For the same molecule, the “course of biofilm luminescence (RLU) / metabolic activity over time” value in data set [1] (over 4 days, result in words) is recorded as “growth similar to the control”. In addition, the “killing of A. actinomycetemcomitans biofilms” value in data set [2] (5 min or 30 min) is on record as “did not significantly kill”. Besides, in data set [2] (30 min, versus mock-treated controls), the “reduction in the number of CFU/tube” value is given as “little or no reduction”. In data set [3], the shelf life entry is “approximately 12 months”.
